Where two headings read alike, the source gives them in different places.

For orientation: IC50 means the concentration that inhibits the measured activity by half. A word on the Km: it is the concentration of substrate that gives half-maximal velocity.

Series [1] deals with T1, vanC2 D-Ala-D-Ser ligase (EcfDdls) (Enterococcus casseliflavus, UniProt Q47720).
T1 construct: C-terminal 6x His-tagged EcfDdls, strain SSK, ~39 kDa
Put plainly: malachite green inorganic phosphate detection assay with purified enzyme. It is filed as biochemical.

In series [2] the test system is Nc1ncnc2c1ncn2[C@@H]1O[C@H](COP(=O)(O)OP(=O)(O)OP(=O)(O)O)[C@@H](O)[C@H]1O. Put plainly: Michaelis-Menten kinetics (Km), inorganic phosphate detection assay. Type of series: biochemical, Enterococcus casseliflavus. The conditions noted are these: MgCl2.
A further series has as its system N[C@H](CO)C(=O)O. Put plainly: Michaelis-Menten kinetics (Km2), inorganic phosphate detection assay. It is filed as biochemical, Enterococcus casseliflavus. The conditions noted are these: ATP, MgCl2 subsite […] (second substrate binding site).
For a further series, the system named is C[C@@H](N)C(=O)O. Put plainly: Michaelis-Menten kinetics (Km1), inorganic phosphate detection assay. Type of series: biochemical, Enterococcus casseliflavus. As to conditions: ATP, MgCl2 subsite […] (first substrate binding site).

T1 sequence (Q47720 whole entry): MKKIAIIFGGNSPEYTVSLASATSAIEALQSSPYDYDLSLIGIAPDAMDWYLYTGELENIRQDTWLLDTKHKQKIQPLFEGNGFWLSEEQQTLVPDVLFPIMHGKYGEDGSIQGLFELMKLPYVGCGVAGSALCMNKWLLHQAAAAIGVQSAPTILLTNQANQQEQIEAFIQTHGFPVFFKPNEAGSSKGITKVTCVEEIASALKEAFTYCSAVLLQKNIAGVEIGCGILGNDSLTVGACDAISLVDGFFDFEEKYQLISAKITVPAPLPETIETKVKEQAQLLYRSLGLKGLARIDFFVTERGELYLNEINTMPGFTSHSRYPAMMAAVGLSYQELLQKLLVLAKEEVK

As for `Cc1cc(CN2CCN(Cc3nc(C(C)C)no3)CC2)no1` [CID 45805715, 1-[(5-methyl-1,2-oxazol-3-yl)methyl]-4-{[3-(propan-2-yl)-1,2,4-oxadiazol-5-yl]methyl}piperazine], the IC50 in series [1] (read-out: IC50) is 76.7 ± 1.01 µM.
Take `N[C@@H]1CON=C1O` [DCS, D-cycloserine]: the midpoint of inhibition in series [1], the IC50, lay at 313 ± 1.6 µM.
As for “vanC2 D-Ala-D-Ser ligase (EcfDdls) (Enterococcus casseliflavus)”, the Km in series [2] turned out to be 24.31 ± 4.1 µM; in the series on N[C@H](CO)C(=O)O it was 800 ± 100 µM; with C[C@@H](N)C(=O)O it was 1120 ± 100 µM.

The record behind these values is publication PMC12004154, “Overexpression, Purification, and Biochemical Characterization of the vanC2 D-Ala-D-Ser Ligase from Enterococcus casseliflavus SSK and Its Inhibition by an Oxadiazole Derivative” (ACS Omega, 2025).
